# Assay results reported in patent publication US20250084155A1 (University of Texas, published 2025).
# Where a chain is given by its changes, count along the chain named. Names and notes keep the numbering of the source.
# T1: recombinant human FcγR2A (human, UniProt P12318 36-218)
# T1 sequence (looked up): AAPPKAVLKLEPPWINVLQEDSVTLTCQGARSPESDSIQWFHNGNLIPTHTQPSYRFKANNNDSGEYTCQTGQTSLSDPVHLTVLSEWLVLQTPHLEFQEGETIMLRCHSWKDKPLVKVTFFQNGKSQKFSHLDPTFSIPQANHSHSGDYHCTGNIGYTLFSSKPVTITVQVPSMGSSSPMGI
# B1: h77A-1 (antibody, V domains shown)
# VH: QIQLVQSGAEVKKPGASVKVSCKASGYTFTNYGMNWVRQAPGQGLEWMGWINTYTGEPTYADDFKGRFTFTTDTSTSTAYMELRSLRSDDTAVYFCARYDHAMDYWGQGTLVTVSS
# VL: EIVLTQSPDSLAVSLGERATINCKSSQSLLNSGTRKNYLAWYQQKAGQSPKLLIYWTSTRESGVPDRFSGSGSGTDFTLTIDSLQAEDVAVYYCKQSYTLYTFGGGTKVEIK
# notes: also called hVH-1 + hVL-1
# B2: h77A-1.14 (antibody, V domains shown)
# VH: B1 VH with A61T
# VL: B1 VL
# notes: captured by anti-human Fc
# B3: h77A-1.17 (antibody, V domains shown)
# VH: B1 VH with N31K, A102S
# VL: B1 VL
# notes: captured by anti-human Fc
# B4: h77A-1.61 (antibody, V domains shown)
# VH: B1 VH with T110S
# VL: B1 VL with Q44K, A46S, T80S
# notes: captured by anti-human Fc
# B5: h77A-1.75 (antibody, V domains shown)
# VH: B1 VH with A9V, A61S, L83V
# VL: B1 VL with L30F, T80S
# notes: captured by anti-human Fc
# B6: h77A-1.74 (antibody, V domains shown)
# VH: B1 VH with A9P, S77T, A79G
# VL: B1 VL with N22K, V91I
# notes: captured by anti-human Fc
# B7: h77A-1.94 (antibody, V domains shown)
# VH: B1 VH with A61T
# VL: B1 VL with L30F, L53I, G70A, T80S, S83R
# notes: captured by anti-human Fc
# B8: h77A-1.18 (antibody, V domains shown)
# VH: B1 VH with S77R
# VL: B1 VL with L53V
# notes: captured by anti-human Fc
# B9: h77A-1.30 (antibody, V domains shown)
# VH: B1 VH with L83V
# VL: B1 VL with L53I
# notes: captured by anti-human Fc
# B10: h77A-1.19 (antibody, V domains shown)
# VH: B1 VH with A61V, E82D
# VL: B1 VL
# notes: captured by anti-human Fc
# B11: h77A-1.59 (antibody, V domains shown)
# VH: B1 VH with A9P, A61G, A97G
# VL: B1 VL with S83R
# notes: captured by anti-human Fc
# B12: h77A-1.71 (antibody, V domains shown)
# VH: B1 VH with A9S, E82D
# VL: B1 VL with A12S, N22K, A86T
# notes: captured by anti-human Fc
# B13: h77A-1.27 (antibody, V domains shown)
# VH: B1 VH with A61T
# VL: B1 VL with A12T
# notes: captured by anti-human Fc
# B14: h77A-1.46 (antibody, V domains shown)
# VH: B1 VH with A9V
# VL: B1 VL with N22K, Q44K
# notes: captured by anti-human Fc
# B15: h77A-1.22 (antibody, V domains shown)
# VH: B1 VH with A61S
# VL: B1 VL with L30F
# notes: captured by anti-human Fc
# B16: h77A-1.16 (antibody, V domains shown)
# VH: B1 VH with N31K
# VL: B1 VL with N22K
# notes: captured by anti-human Fc
# B17: h77A-1-G1m3-GAALIE (antibody, human IgG1, kappa)
# heavy: QIQLVQSGAEVKKPGASVKVSCKASGYTFTNYGMNWVRQAPGQGLEWMGWINTYTGEPTYADDFKGRFTFTTDTSTSTAYMELRSLRSDDTAVYFCARYDHAMDYWGQGTLVTVSSASTKGPSVFPLAPSSKSTSGGTAALGCLVKDYFPEPVTVSWNSGALTSGVHTFPAVLQSSGLYSLSSVVTVPSSSLGTQTYICNVNHKPSNTKVDKRVEPKSCDKTHTCPPCPAPELLAGPSVFLFPPKPKDTLMISRTPEVTCVVVDVSHEDPEVKFNWYVDGVEVHNAKTKPREEQYNSTYRVVSVLTVLHQDWLNGKEYKCKVSNKALPLPEEKTISKAKGQPREPQVYTLPPSREEMTKNQVSLTCLVKGFYPSDIAVEWESNGQPENNYKTTPPVLDSDGSFFLYSKLTVDKSRWQQGNVFSCSVMHEALHNHYTQKSLSLSPGK
# light: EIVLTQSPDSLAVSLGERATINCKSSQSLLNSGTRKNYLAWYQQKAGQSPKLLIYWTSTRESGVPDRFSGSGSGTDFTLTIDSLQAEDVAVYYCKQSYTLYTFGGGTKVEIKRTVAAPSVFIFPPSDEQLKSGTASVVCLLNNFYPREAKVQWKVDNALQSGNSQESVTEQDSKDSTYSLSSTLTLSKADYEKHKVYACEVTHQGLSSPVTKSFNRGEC
# notes: IgG1 G236A/A330L/I332E (EU) Fc variant; also called 77A^GAALIE; copies: 2 + 2
# Target: T2, HSP70 (human HSP70; the antigen of the binning, humanization and variant binding assays) (human, UniProt P0DMV8 1-641, limits assumed)
# T2 construct: also called hu HSP70
# Test: BLI, anti-human Fc capture, steady state
# Description: (§1) Further kinetics assays were conducted for select antibody variants. Assays were performed as follows. Antibody variants were immobilized using anti-human Fc onto the surface of a series of biosensors. Antigen was passed over the surface to generate a binding response. Binding data for the antibody: antigen interactions were collected at 25° C. on the biosensors. A dilution series of the antigen was used in the association step, in order to fit results globally and get the best values for ka, kd, and KD. The response data for the binding of antigen to the surface immobilized antibody were fitted to a 1:1 binding model.
# T2 sequence (P0DMV8 whole entry, change not shown): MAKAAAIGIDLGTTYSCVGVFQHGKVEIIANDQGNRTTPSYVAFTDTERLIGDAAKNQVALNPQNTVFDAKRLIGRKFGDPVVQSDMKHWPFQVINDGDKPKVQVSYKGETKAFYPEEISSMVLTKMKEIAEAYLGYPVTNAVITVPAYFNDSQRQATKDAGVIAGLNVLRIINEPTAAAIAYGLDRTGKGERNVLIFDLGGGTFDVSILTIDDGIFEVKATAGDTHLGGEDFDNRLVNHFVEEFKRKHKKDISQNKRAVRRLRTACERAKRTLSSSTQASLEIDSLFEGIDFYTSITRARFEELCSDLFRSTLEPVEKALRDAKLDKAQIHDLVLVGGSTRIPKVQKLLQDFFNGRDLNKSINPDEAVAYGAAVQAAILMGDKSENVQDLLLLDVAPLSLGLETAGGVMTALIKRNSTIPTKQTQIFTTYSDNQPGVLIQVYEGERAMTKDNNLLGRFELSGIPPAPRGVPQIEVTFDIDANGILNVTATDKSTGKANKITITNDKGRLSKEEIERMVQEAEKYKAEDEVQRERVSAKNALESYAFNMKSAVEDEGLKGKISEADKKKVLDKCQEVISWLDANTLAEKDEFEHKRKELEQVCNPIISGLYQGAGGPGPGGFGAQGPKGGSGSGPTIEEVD
row,KD Steady State,Binder
1,1.2 nM,B1
2,0.77 nM,B2
3,1.3 nM,B3
4,2.1 nM,B4
5,0.023 nM,B5
6,1.7 nM,B6
7,1.3 nM,B7
8,0.81 nM,B8
9,0.86 nM,B9
10,1.2 nM,B10
11,0.74 nM,B11
12,1.3 nM,B12
13,0.89 nM,B13
14,1.2 nM,B14
15,0.81 nM,B15
16,1.3 nM,B16

# Target: T1, recombinant human FcγR2A
# Test: ELISA on coated recombinant human FcγR2A; monomeric antibody; OD 450 nm
# Description: ELISA assays were performed to assess binding to coated FcγR2A by either the monomeric antibody or the antibody in complex with HSP70. Briefly, the assay was performed by coating plates with recombinant human FcγR2A overnight at 0.3 μg/mL. Plates were then washed three times with 300 μL of 1×PBST, and then blocked using 150 µL of SuperBlock per well for 1 hr. Washing was repeated as before, then the dilution series of any of the antibody variants (referred to as “monomeric antibody”) or any of the or antibody immuno-complexes (hereafter referred to as “77A ICX”) were added. To make each dilution series, the following was performed: HSP70 was held constant, and first prepared at a 2× concentration of 200 nM. Antibody was first prepared at 600 nM (2× starting concentration) for the first well, and then serially diluted in three-fold increments using 1× PBST. For use in the assay as monomeric antibody, 80 μL of each 2× antibody dilution was added to 80 μL of 1×PBST and mixed well by pipette to make a 1× dilution series, with the highest concentration being 300 nM. To form the 77A ICX, 80 μL of each 2× antibody dilution was added to 80 μL of 2× HSP70 and mixed well by pipette. […] Plates were then read on a plate reader at 450 and 540 nm wavelengths.
row,binding result,Binder
1,binds,B17

# Target: T2, HSP70 (human HSP70; the antigen of the …)
# Test: BLI, anti-human Fc capture, antigen dilution series, 1:1 fit
# Description: as §1
Kd,koff,kon,Binder
2.39 nM,0.000131 s⁻¹,54700 M⁻¹ s⁻¹,B1
1.97 nM,0.000124 s⁻¹,63100 M⁻¹ s⁻¹,B2
1.51 nM,9.24e-05 s⁻¹,61400 M⁻¹ s⁻¹,B3
2.91 nM,0.000123 s⁻¹,42100 M⁻¹ s⁻¹,B4
0.28 nM,2.43e-05 s⁻¹,88100 M⁻¹ s⁻¹,B5
1.61 nM,0.000125 s⁻¹,77800 M⁻¹ s⁻¹,B6
1.85 nM,0.000111 s⁻¹,59900 M⁻¹ s⁻¹,B7
1.44 nM,9.1e-05 s⁻¹,63200 M⁻¹ s⁻¹,B8
1.93 nM,0.000109 s⁻¹,56700 M⁻¹ s⁻¹,B9
1.26 nM,0.000111 s⁻¹,88500 M⁻¹ s⁻¹,B10
2.93 nM,0.00012 s⁻¹,40800 M⁻¹ s⁻¹,B11
2.51 nM,0.000123 s⁻¹,49000 M⁻¹ s⁻¹,B12
1.41 nM,0.000108 s⁻¹,76400 M⁻¹ s⁻¹,B13
2.24 nM,0.000123 s⁻¹,54800 M⁻¹ s⁻¹,B14
1.14 nM,7.64e-05 s⁻¹,66900 M⁻¹ s⁻¹,B15
1.27 nM,6.84e-05 s⁻¹,54000 M⁻¹ s⁻¹,B16

# Target: T2, HSP70 (human HSP70; the antigen of the …)
# Test: BLI, anti-human Fc capture, antigen 100 nM
# Outline: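 Antibody variants captured on anti-human Fc biosensors at […]; antigen at 100 nM flowed over, 25° C. Captured antigen recorded at 610 s (start of dissociation) and 1495 s (end of dissociation), giving % dissociation.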
row,% Diss,Binder
1,7.63%,B1
2,7.88%,B2
3,7.04%,B3
4,6.66%,B4
5,5.34%,B5
6,9.07%,B6
7,5.24%,B7
8,7.15%,B8
9,5.1%,B9
10,8.73%,B10
11,9.8%,B11
12,7.93%,B12
13,6.74%,B13
14,6.22%,B14
15,6.5%,B15
16,3.25%,B16

# Target: T2, HSP70 (human HSP70; the antigen of the …)
# Test: BLI, antibody on sensor
# Description: Humanized variants were characterized for binding using biolayer interferometry (BLI). Chimeric antibodies including the murine 77A antigen binding region and human Fe regions were also tested. Antibodies and reagents were diluted out onto microwell plates and loaded into the instrument. Diluted antibodies were first immobilized onto dip-and-read sensors, and then measurements for baselines were acquired. Subsequently, the sensors were dipped into wells containing the antigen in solution, or buffer alone. The change in number of molecules bound to the sensor was quantified by measurement of the shift in the interference pattern of light during each step of the protocol. Mathematical modeling was performed based on those values and the concentrations of reagents used in the assay and used to calculate kinetics values.
Kd,koff,kon,Binder
2.61 nM,0.000173 s⁻¹,66200 M⁻¹ s⁻¹,B1
